± gives the half width of the 95% confidence interval.
Legend:
[1] = folding stability dG unfold from trypsin proteolysis; higher = more stable
Protocol: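 Folding stability of de novo designed mini-proteins (<80 aa, no Cys; designed by TrROS, TrMRF, ProteinMPNN and the joint model) was measured by cDNA display proteolysis with trypsin and chymotrypsin. Each protease was used at 11 concentrations in a threefold dilution series plus a no-protease condition. K50 was inferred by Bayesian fitting of sequencing counts, and dG unfold was derived against a sequence-predicted unfolded-state K50 (Tsuboyama et al. method). Sequences shown include variable-length N-terminal GS-type padding (SAGGSAGG...) inside a display construct carrying a PA tag. Rows were kept only if the AF2 dimer inter-PAE was >15, to exclude likely homo-oligomers.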

[2] = folding stability dG unfold (combined trypsin and chymotrypsin); higher = more stable
In short: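 Designed mini-proteins (under 80 residues, no cysteine) in a PA-tagged cDNA display construct were digested with trypsin and chymotrypsin. Each protease was used at 11 concentrations (threefold dilutions) plus a no-protease condition, followed by sequencing. K50 was inferred by Bayesian fitting of sequencing counts, and unfolding free energy was derived against a sequence-predicted unfolded-state K50 and a shared folded-state K50, per protease or combined. Only designs with AlphaFold2 dimer inter-PAE above 15 were kept.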

Sequence	folding stability dG unfold [1] [kcal/mol]	folding stability dG unfold [2] [kcal/mol]
SAGGSAGGMKAKVLVLDPETGKEYDSLEELKAEVEGPVLIRNSTGELILLHRDDLKYFPLPLSLSAGGSAGG [r6_684_TrMRF]	0.305 ± 0.12	0.0344 ± 0.2
SAGGSAGGSATITISLGPPEYIEVYDPANGVKRKFPASVPKEEVAAEIEKEYPDTPVVFTTDASAGGSAGGS [r12_423_JUSTAS]	0.394 ± 0.06	-0.172 ± 0.32
SAGGNVEIERNPDGMITVEFPMKSPEQAIEEVKNFLQQQGWKIKDIPVERPPNGWVKITIPIKPPGASAGGS [r8_253_TrROS]	0.34 ± 0.057	0.0774 ± 0.3
SAGGSAGGSMIVEKKYSLDPAKGTITTTTTTVTPVPNGDSLIVSTTTTTKSVSPSESPDISSSSAGGSAGGS [r12_700_JUSTAS]	-0.39 ± 0.066	-0.553 ± 0.24
SAGGSAGGSAGMTLEEKLKEAEEKHKKEGGPATITITDPTATGVSKTYTVTIENEGLKVESAGGSAGGSAGG [r11_954_JUSTAS]	0.034 ± 0.055	-0.132 ± 0.36
SAGGMTFVKVKPAPVKFGEGDKEYWVVEIVKVLEVEDVGEKPVVKAEKETIIIPKDNPDALKEAGIDASAGG [r13_670_TrMRF]	-1.02 ± 0.22	< -1
SAGGSAGGSAGFLVLVTDVKENPETGTFSIYLPSTGSVKTFPPNTKAVIPAAPDEPVFVAPESAGGSAGGSA [r18_329_TrMRF]	-0.314 ± 0.11	< -1
SAGMKELVLVERDAPVLGVYLDPETGRPRLEPRPVPVVVVVEVEPDSEAARELAEKLAPEDVRVEVLPASAG [r5_468_TrMRF]	0.164 ± 0.05	-0.483 ± 0.24
SAGGSAGGSAGGSGNFDKDGNKLTVYYPNTKKPVTIDFPVEDIFEFIKNLPPNVAKVDASAGGSAGGSAGGS [r4_282_TrMRF]	-0.201 ± 0.049	-0.869 ± 0.4
SAKPIPAKDITINMHPPPGGNFNFEIELDDKEIGEHPFKSPEDMQEGMKEIAKELAALLGPDDIKIKPWSAG [r14_791_TrROS]	0.4 ± 0.075	-0.0161 ± 0.25
SAGGSAGGSAGGEESRRVTVTETVYPVYPGVGIIRVTRTVTTPDATTTSTTLVFVPPGLPSAGGSAGGSAGG [r17_465_JUSTAS]	-0.433 ± 0.24	< -1
SALINLKKEDVEKLVKALEKEGNYKVKIKPVKVVYKPKDGSKKPIGAVKIEVIDPDNPKSLLDKIKKAGSAG [r14_628_TrMRF]	-1.29 ± 0.62	< -1
SAGGSAGGSAGGMPVEVTEVASVTTLPNGTTKITIKTPTGTVTFDDPSKIPSSILKLLSSAGGSAGGSAGGS [r10_748_JUSTAS]	0.703 ± 0.014	0.211 ± 0.1
SAGGSAGGSAGMEDLVTVTETVETTDTLRDEGGTPTGTTTTTTTVTKLLSPEKVAALKEASAGGSAGGSAGG [r11_620_JUSTAS]	-0.116 ± 0.021	-0.85 ± 0.23
SAGGSAGGSEPDFVVVDIPFPPDVPLEALVEFARSLPSVVVNLVDEEGRPVSIALPREAVERLASAGGSAGG [r6_791_TrMRF]	-0.347 ± 0.15	< -1
SAGGSAGGSAGGWVFDSDDYPKFQDAAKDHGLKPKSINDDDNTMTVDPEDPNRIRDAINESAGGSAGGSAGG [r7_285_TrROS]	-0.147 ± 0.21	< -1
SAGGSAGGSAGGSGMPQPTTVLTTEYYPPGVVVKKDIVYSPSGGAEEVEVSFYPSPELLSAGGSAGGSAGGS [r4_57_JUSTAS]	-1.08 ± 0.2	< -1
SAGGSAGGSAGPKPEYIRIKIEMWNPDGNPREHDFTFPPGHKDQIENLADNYGFRVSIEKSAGGSAGGSAGG [r11_603_TrROS]	0.278 ± 0.13	-0.281 ± 0.29
SAGGSAGGSAGGKKTIWIPVKIEPVPDGVRIKFPDGNPIIIPPNHKVEHTPGWMRITLDSAGGSAGGSAGGS [r10_305_TrROS]	-0.293 ± 0.18	-0.908 ± 0.86

Sequence	folding stability dG unfold [1] [kcal/mol]	folding stability dG unfold [2] [kcal/mol]
SAGGIKLPPGQEIEGKIQYPFPDGMFMTSEQPIRIPPVPPPPPEVEVHLPDGERKPVRSPEEADDAASAGGS [r16_580_TrROS]	0.0184 ± 0.049	-0.511 ± 0.26
MHKVEHTIKHPGYEIKIEVTMYPNPNGNYYVPIKIEREDPKDNKPKKKPIMVPFPPGDPDDFVDWALEEILS [r1_171_TrROS]	-0.189 ± 0.17	-0.207 ± 0.55
SAGGSAGGSAGGMTITLEFTTEEEVEAYAKEIGATKVEVTREKTETPEERIKATIEKPGSAGGSAGGSAGGS [r10_494_JUSTAS]	-0.365 ± 0.74	< -1
SAGGSAGGSAGMKIVAPSKEEAEKIAKELAKELGLPDEIKDLEIEVIPLKPTPDGGFIPYSAGGSAGGSAGG [r17_237_TrMRF]	-0.168 ± 0.17	-0.715 ± 0.22
SAGGSAGGSAGGMVVTVKVGDETIEIDTETGTATVTPPATGTTTTVPASEVEPITPELLSAGGSAGGSAGGS [r10_709_JUSTAS]	0.945 ± 0.076	0.123 ± 0.065
SAGGNWIMIELPLDDLKNAKPNQKVKIEWPDGKPFEVNAHRHDGRYPVLVRNPENPDKWEPIGEIEIESAGG [r13_745_TrROS]	-0.0737 ± 0.11	< -1
SGPDVPLTPEEVAARIKAELLEKHPIGEVTPVELREFPELGVVEVRLRINVKGPPGETREIDVRLSRERLSA [r9_1002_JUSTAS]	0.694 ± 0.13	0.0428 ± 0.21
SAGGPNIEIEQERHPDDGMWTINVKWDNPAEIVEEIAKEIREQNRDIPIMITGPDGNPIMIPLDDIRSAGGS [r8_236_TrROS]	0.177 ± 0.049	-0.817 ± 0.39
SAGGSAGGGMVTVEIPLEVTLTTSLTPEPGTAQTVTLPVVVTIEFPPGNPEKLKKEVEKIKKKSSAGGSAGG [r6_280_JUSTAS]	-0.456 ± 0.2	< -1
SAGGSAGGSAGMKTYTVPLPGGDPALIEQTAQDIVEKIPGLEDHEVKVDAGDDGTLTIVESAGGSAGGSAGG [r17_324_JUSTAS]	-0.736 ± 0.16	< -1
SAGGSAGGSSVLRVTVEIPETGETVELTVPPSVTEEDVRARIEAEGHAIEKIEVTESEVPPLASAGGSAGGS [r12_955_JUSTAS]	-0.358 ± 0.096	< -1
SAGGGKIKKPKPIVIRVPKNSIKVGDDVPVAVLAKALGIDPSAKAKVGEVKPPENGDYELVVVEVESSAGGS [r16_165_TrMRF]	-0.508 ± 0.34	< -1
SAGGSAGGSAGGSALDRPVPVLVTGSIPLDGKFEDALGAAKAIEEEFAPYGYIVLSDVHVSAGGSAGGSAGG [r17_197_TrMRF]	0.297 ± 0.048	-0.0552 ± 0.12
SAGGSAGGDPSRLPVITPETFNVPVPAPGGVNETVTVTVIKLPGGETIVTTTYPDGKTTTELIPSAGGSAGG [r6_111_JUSTAS]	0.927 ± 0.058	0.182 ± 0.15
SAGGSAGGSAGGSPEVVPVDHPDRELLLVRFPDSVVLTDPSAPGASRTFPADTDVVVDASAGGSAGGSAGGS [r4_321_TrMRF]	-1.37 ± 0.41	< -1
SAGGSAGGMTVPASSYEGVPLKVTVSRGDENVSAEEAEVTPLPDGTVVVKLPESLPEDTEVTLESAGGSAGG [r6_630_JUSTAS]	0.703 ± 0.047	-0.137 ± 0.13
SAGGSMIEVEIENPDPSVSPEEIAERVIRELTPDGGPLQPLEIKPTLVGDKPVYKIKIYIPDPELIKESAGG [r13_979_JUSTAS]	-0.519 ± 0.2	< -1
SAGGSAGGSAGGGENVTTEEKVLEVSYDPSKNSYSTLVKVTVKYPNGTTEEFEVVEEKLSAGGSAGGSAGGS [r10_1214_JUSTAS]	0.334 ± 0.042	-0.0354 ± 0.21

Reference: the supplement of paper PMC12764529
